Source: patent US20230227514A1, “BETA-ARRESTIN COMPOSITIONS AND ASSOCIATED METHODS” (Duke University, priority 2020, published 2023)

Legend:
β2AR [1] = target: T1, β2AR (Homo sapiens, UniProt P07550); experiment: Chemical cross-linking and co-immunoprecipitation of βarrestin2 constructs with Flag-β2AR; type: binding; conditions: HEK-293 cells stably expressing FLAG-β2AR; 5 minutes of 1 μM isoproterenol; DSP cross-linking, co-IP, Western blot
T1 construct: Flag (N); expressed in transfected cells
Method: Cross-linking, Immunoprecipitation and Immunoblotting. […] Twenty-four hours post-transfection, cells were starved in PBS containing 10 mM HEPES (pH 7.4) for 1 h and stimulated with vehicle or agonist (isoproterenol, 1 μM; or AVP 1 μM, or Dopamine 1 μM) at 37° C. for desired times. After stimulations, β2AR stable cells were treated with the crosslinker DSP to a final concentration of […], and plates were rocked for 20 min at room temperature. Reaction was quenched by adding 25 μl of 1M Tris-Cl pH 8.5 per 1 mL volume of buffer in the dish and rocked for additional 5 min at room temperature.
Harvested cells were washed with ice-cold PBS (pH 7.4) and solubilized in an ice-cold lysis buffer (50 mM HEPES (pH 7.5), 2 mM EDTA, 250 mM NaCl, 10% (v/v) glycerol, and 0.5% (v/v) IGEPAL CA-630) that was supplemented with phosphatase and protease inhibitors (1 mM sodium orthovanadate, 1 mM sodium fluoride, 1 mM phenylmethylsulfonyl fluoride, 5 μg/ml leupeptin, 5 μg/ml aprotinin, 1 μg/ml pepstatin A, and 100 μM benzamidine). […] Cell lysate protein concentrations were determined by Bradford protein assay and equivalent μg of proteins were immunoprecipitated using anti-FLAG M2 antibody resin (for FIG. 2) or Anti-HA magnetic beads from Thermo Pierce (for FIG. 5, FIG. 7, and FIG. 8). […] HA-D2R or HA-V2R were detected using an anti-HA IgG (Cell Signaling Technologies). […]

V2R = target: T2, V2R (Homo sapiens, UniProt P30518); experiment: Co-immunoprecipitation of βarrestin2 constructs with HA-V2R; type: binding; conditions: HEK-293 cells stably expressing HA-V2R; AVP
T2 construct: HA (N); expressed in transfected cells
Method: Twenty-four hours post-transfection, cells were starved in PBS containing 10 mM HEPES (pH 7.4) for 1 h and stimulated with vehicle or agonist (isoproterenol, 1 μM; or AVP 1 μM, or Dopamine 1 μM) at 37° C. for desired times. After stimulations, β2AR stable cells were treated with the crosslinker DSP to a final concentration of 480 nM, and plates were rocked for 20 min at room temperature. Reaction was quenched by adding 25 μl of 1M Tris-Cl pH 8.5 per 1 mL volume of buffer in the dish and rocked for additional 5 min at room temperature.

[2] = target: T3, D1 dopamine receptor (D1R) (Homo sapiens, UniProt P21728); experiment: Confocal trafficking and colocalization with D1R; type: cell-based; conditions: HEK-293 cells with stable D1R expression; dopamine 15 minutes
T3 construct: expressed in transfected cells
T3 sequence (P21728 whole entry): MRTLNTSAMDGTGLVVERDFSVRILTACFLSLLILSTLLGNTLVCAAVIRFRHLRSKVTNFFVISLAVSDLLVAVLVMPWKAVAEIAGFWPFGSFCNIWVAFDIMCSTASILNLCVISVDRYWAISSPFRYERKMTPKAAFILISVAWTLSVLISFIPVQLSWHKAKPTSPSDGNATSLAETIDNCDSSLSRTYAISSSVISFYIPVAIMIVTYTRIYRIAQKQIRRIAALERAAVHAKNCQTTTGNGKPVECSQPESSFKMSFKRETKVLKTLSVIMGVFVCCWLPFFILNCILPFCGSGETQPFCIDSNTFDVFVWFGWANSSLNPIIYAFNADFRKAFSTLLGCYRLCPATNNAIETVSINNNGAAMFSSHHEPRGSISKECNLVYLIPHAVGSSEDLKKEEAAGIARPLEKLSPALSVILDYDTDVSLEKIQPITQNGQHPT
Method: Immunostaining and confocal microscopy. […] Twenty-four hours post-transfection, cells were serum-starved for 4 h, and either left untreated or treated with respective agonists for the indicated times in the Figure descriptions. After stimulation, cells were fixed with 5% formaldehyde diluted in phosphate-buffered saline (PBS), permeabilized with 0.1% Triton in PBS containing 2% bovine serum albumin for 20 min and incubated at room temperature with appropriate primary antibody. The next day, cells were washed three times with PBS and incubated with Alexa594 conjugated secondary antibody for 1 h, followed by repeated washes using PBS. Confocal images were acquired using Zeiss LSM510 laser-scanning microscope using multitrack sequential with excitation (488 and 568 nm) and emission (BP 505-550 nm and LP 585 nm) filter sets. Images (1024×1024 pixels) were collected using either a 63× or 100× oil immersion lens. Images were processed for Figure presentation using Adobe Photoshop software, and any increase or decrease of brightness/contrast was applied to the entire image. The nuclear rim localization of YFP-βarrestin2-SUMO1 is readily visualized in cells with low to moderate expression of YFP-protein. In cells with high expression, this localization is present, and can be discerned by enlarging sections of the nuclear rim. […]

β2AR [3] = target: T1, β2AR; experiment: Confocal trafficking and colocalization with β2AR; type: cell-based; conditions: HEK-293 cells with stable β2AR expression; agonist up to 20 minutes
Method: Immunostaining and confocal microscopy. […] Twenty-four hours post-transfection, cells were serum-starved for 4 h, and either left untreated or treated with respective agonists for the indicated times in the Figure descriptions. After stimulation, cells were fixed with 5% formaldehyde diluted in phosphate-buffered saline (PBS), permeabilized with 0.1% Triton in PBS containing 2% bovine serum albumin for 20 min and incubated at room temperature with appropriate primary antibody. The next day, cells were washed three times with PBS and incubated with Alexa594 conjugated secondary antibody for 1 h, followed by repeated washes using PBS. Confocal images were acquired using Zeiss LSM510 laser-scanning microscope using multitrack sequential with excitation (488 and 568 nm) and emission (BP 505-550 nm and LP 585 nm) filter sets. Images (1024×1024 pixels) were collected using either a 63× or 100× oil immersion lens. Images were processed for Figure presentation using Adobe Photoshop software, and any increase or decrease of brightness/contrast was applied to the entire image. The nuclear rim localization of YFP-βarrestin2-SUMO1 is readily visualized in cells with low to moderate expression of YFP-protein. In cells with high expression, this localization is present, and can be discerned by enlarging sections of the nuclear rim.
For βarrestin2-SUMO1, plasma membrane translocation was detected upon β2AR agonist activation, and, intriguingly, βarrestin2-SUMO1 was detected in endocytic vesicles. […] Confocal images were taken of cells stably expressing the β2AR and transiently expressing YFP-SUMO1 (data not shown). In both quiescent and agonist-treated cells, the SUMO1 protein remained in the nucleus. […] See Shenoy et al. 2007, supra; Shenoy and Lefkowitz. 2005. J Biol Chem 280:15315-15324; and Shenoy and Lefkowitz. 2003. J Biol Chem 278:14498-14506. Therefore, the endosomal trafficking was compared for βarrestin2-ubiquitin (βarrestin2-Ub) fusion protein and internalized β2ARs. […]

Substance: βarrestin2-SUMO1: rat βarrestin2 polypeptide fused to human SUMO1 (SEQ ID NO:1); used YFP- or Flag-tagged
- binding to activated β2AR relative to WT βarrestin2 (β2AR [1]): 2-3 fold
- binding with agonist activated V2Rs by co-immunoprecipitation (V2R): equivalent binding
- association with D1R after dopamine activation (confocal) [2]: strongly and stably
- colocalization / complexes with β2AR after agonist activation (confocal) (β2AR [3]): persisted with longer agonist activation
